Experimental data published in US20230127694A1, “NEUROPROTECTIVE PEPTIDE” (published 2023).
Non-standard residues stand in square brackets, D forms with d. No end group written: not given here.

Biological target: ERK1 MAP kinase (MAPK3), mouse (mouse, UniProt Q63844)
Assay: cell-based or functional assay

Ac-GRKKRRQRRRPPQGGGGGEPRRTEGVGPGVPGEVEMVKGQPFD[dV] [CPP-RB5]
EC50 of phospho-ERK positive cells in striatal slices (immunohistochemistry, dose response): 3.4 µM
